Measurements from patent US20170081379A1 (Dana-Farber, published 2017).
Bridge positions count the residues as written; N and C are the ends. Square brackets hold non-standard residues; d marks the D form. R8 = C=CCCCCCC[C@@](C)(N)C(=O)O; S5 = C=CCCC[C@](C)(N)C(=O)O

Target: T1, recombinant HDM2 17-125 (human, UniProt Q00987 17-125)
T1 construct: range 17-125
Assay: fluorescence polarization competition: unlabeled peptide titrated against FITC-WT p53 14-29 (25 nM) bound to HDM2 17-125
Procedure: (§1) FIG. 12 Competition by fluorescence polarization. Fluoresceinated, wild type p53₁₄₋₂₉ (25 nM) was incubated with recombinant HDM2₁₇₋₁₂₅. Unlabeled SAH-p53s were titrated into the mixture, and displacement of the labeled ligand was measured by fluorescence polarization.
as §1, with “The ability of various SAH-p53s to compete with wild-type p53₁₄₋₂₉ for binding to HDM2₁₇₋₁₂₅ was assessed as follows.” for “FIG. 12 Competition by fluorescence polarization.”

binding result: binds
B1: SAH-p53-4 (peptide)
peptide: Ac-LSQETF[R8]DLWKLL[S5]EN-NH2
modifications: staple 7-14
notes: the FITC-labeled form is m4; also called unlabeled SAH-p53-4; Ac-SAH-p53-4
